Experimental data reported in patent US9028816 (Ablynx, dated 2015).

Assays:
[1] = target: T1, human von Willebrand factor (vWF) (human, UniProt P04275 764-2813); experiment: ELISA: coated vWF, purified vWF A1-specific VHH, as in Example 7 (Example 20)
T1 construct: also called Human vWF

collagen type I = target: T2, collagen type I; experiment: ELISA: collagen type I coated at 25 µg/ml, purified VHH in twofold dilutions, detection as in Example 7 (Example 34) [collagen type I]
T2 construct: coated on the microtiter plate

[2] = target: T3, mouse serum albumin (MSA) (mouse, UniProt P07724 25-608); experiment: ELISA: MSA coated at 5 µg/ml, purified nanobody in 1/3 dilutions, detection with rabbit anti-nanobody serum and anti-rabbit alkaline phosphatase, PNPP (Example 50)
T3 construct: also called mouse albumin

[3] = target: human serum albumin (HSA) (human, UniProt P02768 25-609); experiment: phage on blotted plasma (1/10)
pig serum albumin = pig serum albumin (pig, UniProt P08835 25-607); experiment: phage on blotted plasma (1/10)
Sequence of pig serum albumin (P08835 25-607 limits assumed): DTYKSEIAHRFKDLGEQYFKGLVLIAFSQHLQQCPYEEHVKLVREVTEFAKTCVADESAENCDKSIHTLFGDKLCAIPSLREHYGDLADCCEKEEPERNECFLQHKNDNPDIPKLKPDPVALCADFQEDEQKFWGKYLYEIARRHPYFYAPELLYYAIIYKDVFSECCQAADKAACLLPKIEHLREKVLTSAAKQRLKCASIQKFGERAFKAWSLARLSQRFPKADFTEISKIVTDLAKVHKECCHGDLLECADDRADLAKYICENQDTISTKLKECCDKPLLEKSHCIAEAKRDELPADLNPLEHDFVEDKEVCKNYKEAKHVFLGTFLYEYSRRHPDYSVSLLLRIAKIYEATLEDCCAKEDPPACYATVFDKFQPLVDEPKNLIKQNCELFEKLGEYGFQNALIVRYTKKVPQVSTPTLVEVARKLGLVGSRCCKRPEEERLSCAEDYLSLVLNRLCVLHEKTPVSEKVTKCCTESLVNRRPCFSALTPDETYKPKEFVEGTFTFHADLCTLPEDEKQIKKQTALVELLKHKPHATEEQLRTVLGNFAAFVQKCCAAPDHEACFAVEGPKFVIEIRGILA

T3 sequence (P07724 25-608 limits assumed): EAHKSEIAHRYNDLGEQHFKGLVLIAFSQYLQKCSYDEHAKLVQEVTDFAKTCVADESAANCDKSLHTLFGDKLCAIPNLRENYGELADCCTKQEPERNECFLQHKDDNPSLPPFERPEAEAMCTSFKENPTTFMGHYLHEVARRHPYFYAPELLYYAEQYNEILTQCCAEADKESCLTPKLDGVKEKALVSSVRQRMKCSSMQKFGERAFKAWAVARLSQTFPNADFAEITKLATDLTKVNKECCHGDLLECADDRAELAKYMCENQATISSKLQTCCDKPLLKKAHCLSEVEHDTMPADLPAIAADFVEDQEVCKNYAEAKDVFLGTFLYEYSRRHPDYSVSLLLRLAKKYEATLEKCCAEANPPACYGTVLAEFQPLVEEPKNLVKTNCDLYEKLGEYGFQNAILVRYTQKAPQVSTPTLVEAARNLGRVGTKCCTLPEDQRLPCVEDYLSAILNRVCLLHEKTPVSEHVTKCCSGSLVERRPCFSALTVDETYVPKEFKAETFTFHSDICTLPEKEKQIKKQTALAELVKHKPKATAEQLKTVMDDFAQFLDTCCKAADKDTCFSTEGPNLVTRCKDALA

B1: Z29 (VHH)
VHH: QVQLQESGGGSVQAGDSLTLSCAASGRTFSMHAMGWFRQAPGKEREFVAAISPSAFTEYADSLKGRFTVSRDNAKKLVWLQMNGLKPEDTAAYYCAARRGAFTATTAPLYDYWGQGTQVTVSS
EC50 (read off the curve) [1]: ~70 nM

B2: 3L-41 (VHH)
VHH: QVQLQDSGGGLVQAGGSLRLSCAASGRTFRRYAMGWYRQAPGKQRVLVAAITSNGRPSVADSVKGRFTISSDTAKNTVYLQMNSLKPEDTALYYCTLYNTSADYYNQSPSSWGQGTQVTVLS
EC50 (read off the curve) (collagen type I): ~10 nM

B3: MSA24 (VHH)
VHH: QVQLQESGGGLVQPGNSLRLSCAASGFTFRNFGMSWVRQAPGKEPEWVSSISGSGSNTIYADSVKDRFTISRDNAKSTLYLQMNSLKPEDTAVYYCTIGGSLSRSSQGTQVTVSS
EC50 (read off the curve) [2]: ~0.6 nM
binding result [3]: binds
binding result (pig serum albumin): binds

B4: 3P1-31 (VHH)
VHH: QVQLQESGGGLVQAGGSLRLSCAASGRTFRRYAMGWYRQAPGKQRELVAAITSGGRTSVADTVKGRFTISSDNAKNTVYLQMNSLKPEDAAVYYCTLYNSTTNYYNQSPSSWGQGTQVTVSS
EC50 (read off the curve) (collagen type I): ~200 nM
